Reference: PMC9631798 (2022)
Where “and” joins values, the source holds several entries; their conditions need not be identical. Equal values may be shown once.

Key:
Biotinylated human IL-2 [1] = target: T1, Biotinylated human IL-2 (human, UniProt P60568 21-153, biotin on the biotin acceptor peptide (BirA ligase)); experiment: BLI
Biotinylated human IL-2 [2] = target: T1, Biotinylated human IL-2; experiment: BLI; Fig S1E
[3] = target: yeast-displayed hIL-2 (residues 1-133) (human, UniProt P60568 21-153); experiment: FACS; yeast surface display
yeast-displayed hIL-2 (residues 1-133), sequence (P60568 21-153): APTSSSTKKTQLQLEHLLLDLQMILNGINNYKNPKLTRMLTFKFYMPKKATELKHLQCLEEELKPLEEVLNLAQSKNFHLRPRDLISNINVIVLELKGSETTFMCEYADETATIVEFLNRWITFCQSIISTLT

F5111 IC LN15 = F5111 IC LN15 (human, UniProt P60568 21-153); experiment: BLI
F5111.2 IC LN35 = F5111.2 IC LN35 (human, UniProt P60568 21-153); experiment: BLI
F5111 IC LN35 = F5111 IC LN35 (human, UniProt P60568 21-153); experiment: BLI
[4] = target: Control (FITC-E2) IC LN35 (human, UniProt P60568 21-153); experiment: BLI
[5] = target: hIL-2/F5111.2 complex (1:1 molar ratio) (human, UniProt P60568 21-153); experiment: BLI
[6] = target: hIL-2/F5111 complex (1:1 molar ratio) (human, UniProt P60568 21-153); experiment: BLI
F5111 IC LN25 = F5111 IC LN25 (human, UniProt P60568 21-153); experiment: BLI

T1 sequence (P60568 21-153): as above

Row | Kd (Biotinylated human IL-2 [1]) | Kd (Biotinylated human IL-2 [2]) | Kd [3] | Kd (F5111 IC LN15) | Kd (F5111.2 IC LN35) | Kd (F5111 IC LN35) | Kd [4] | Kd [5] | Kd [6] | Kd (F5111 IC LN25) | Binder
1 |  |  |  | 7.5 nM | 2.4 nM | 3.2 nM and 3 nM | 2.5 nM and 3.4 nM | 68 nM | 18 nM |  | Biotinylated human IL-2Rα extracellular domain (residues 1-217) (receptor, biotin on the biotin acceptor peptide (BirA ligase)) ELCDDDPPEIPHATFKAMAYKEGTMLNCECKRGFRRIKSGSLYMLCTGNSSHSSWDNQCQCTSSATRNTTKQVTPQPEEQKERKTTEMQSPMQPVDQASLPGHCREPPPWENEATERIYHFVVGQMVYYQCVQGYRALHRGPAESVCKMTHGKTRWTQPQLICTGEMETSQFPGEEKPQASPEGRPESETSCLVTTTDFQIQTEMAATMETSIFTTE
2 |  |  |  | 210 nM | > 2000 nM | > 2000 nM | 4.1 nM and 4.4 nM | > 2000 nM | > 2000 nM | > 2000 nM | Biotinylated human IL-2Rβ extracellular domain (residues 1-214) (receptor, biotin on the biotin acceptor peptide (BirA ligase)) AVNGTSQFTCFYNSRANISCVWSQDGALQDTSCQVHAWPDRRRWNQTCELLPVSQASWACNLILGAPDSQKLTTVDIVTLRVLCREGVRWRVMAIQDFKPFENLRLMAPISLQVVHVETHRCNISWEISQASHYFERHLEFEARTLSPGHTWEEAPLLTLKQKQEWICLETLTPDTQYEFQVRVKPLQGEFTTWSPWSQPLAFRTKPAALGKDT

More lines, now with the values behind:

Row | Binder | Kd (Biotinylated human IL-2 [1]) | Kd (Biotinylated human IL-2 [2]) | Kd [3] | Kd (F5111 IC LN15) | Kd (F5111.2 IC LN35) | Kd (F5111 IC LN35) | Kd [4] | Kd [5] | Kd [6] | Kd (F5111 IC LN25)
3 | F5111.2 Antibody (N297A) (antibody, V domains shown) VH: QLQLQESGPGLVKPSQTLSLTCTVSGGSISSGGYYWSWIRQHPGKGLEWIGYIYKSGSAYYSPSLKSRVTISVDTSKNQFSLKLSSVTAADTAVYYCARTPTVTGDWFDPWGRGTLVTVSS VL: NFMLTQPHSVSESPGKTVTISCTRSSGSIASNYVQWYQQRPGSSPTTVIYEDNQRPSGVPDRFSGSIDSSSNSASLTISGLKTEDEADYYCQTYDSIDVYFGGGTKLTVL | 4.9 nM |  |  |  |  |  |  |  |  | 
4 | F5111 antibody (antibody, V domains shown) VH: QLQLQESGPGLVKPSQTLSLTCTVSGGSISSGGYYWSWIRQHPGKGLEWIGYIYYSGSTYYNPSLKSRVTISVDTSKNQFSLKLSSVTAADTAVYYCARTPTVTGDWFDPWGRGTLVTVSS VL: NFMLTQPHSVSESPGKTVTISCTRSSGSIASNYVQWYQQRPGSSPTTVIYEDNQRPSGVPDRFSGSIDSSSNSASLTISGLKTEDEADYYCQSYDSSNVVFGGGTKLTVL | 2.7 nM | 2.1 nM | 0.42 nM |  |  |  |  |  |  | 
